Reference: paper PMC8939814

Target: CXCR2 (human) (UniProt P25025)
UniProt P25025, sequence (P25025 whole entry): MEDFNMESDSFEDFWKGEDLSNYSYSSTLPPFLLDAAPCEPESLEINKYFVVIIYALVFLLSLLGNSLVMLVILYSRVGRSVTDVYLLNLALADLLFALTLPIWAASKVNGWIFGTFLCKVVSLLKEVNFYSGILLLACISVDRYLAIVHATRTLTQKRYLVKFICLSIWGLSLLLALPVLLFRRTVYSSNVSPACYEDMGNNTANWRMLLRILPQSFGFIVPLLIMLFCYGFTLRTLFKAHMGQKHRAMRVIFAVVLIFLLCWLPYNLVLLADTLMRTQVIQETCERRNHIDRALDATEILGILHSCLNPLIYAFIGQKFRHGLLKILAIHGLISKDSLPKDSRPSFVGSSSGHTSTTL

Row | Substance | IP accumulation (G protein signaling, Gqi4myr) in transfected COS-7 cells, agonism at 1 μM (% of the efficacy of CXCL8 on CXCR2) | IP accumulation (G protein signaling, Gqi4myr) in transfected COS-7 cells, agonism at 1 μM (% of the maximal activity of CXCL8)
1 | vCXCL1_(GT5 (4–97)), N-terminally truncated vCXCL1GT5 (domain or fragment) | 31 | 
2 | vCXCL1GT5, the non-ELR CXC chemokine encoded by HCMV UL146 genotype 5 (Davis strain), wild type (1–97) (ligand) |  | 60
3 | vCXCL1_(GT5 (6–97)), N-terminally truncated vCXCL1GT5 (domain or fragment) | 29 | 
